Test results as given in publication PMC5521178.

What was measured:
Assay in all cases: fluorescence polarisation
[1] = molecular target: FITC-labeled full-length caspase-7 C186A phosphorylated by autoactivated PAK2 (UniProt P55210)
[2] = molecular target: FITC-labeled full-length caspase-7 S30A/C186A (UniProt P55210)
[3] = molecular target: FITC-labeled full-length caspase-7 C186A (UniProt P55210)

Kd [1]: > 27000 nM | Kd [2]: 1700 nM | Kd [3]: 1800 nM
Substance: caspase-9 constitutive dimer C287A (from UniProt P55211 1-416) (enzyme)
